B1: FLAG-GLUT4 (human full length) expressed in HEK293T cells [human] / retinoic acid inducible gene I (RIG-I), endogenous in HEK293T cells [human (endogenous in HEK293T)] (parent complex)
chain 1: MPSGFQQIGSEDGEPPQQRVTGTLVLAVFSAVLGSLQFGYNIGVINAPQKVIEQSYNETWLGRQGPEGPSSIPPGTLTTLWALSVAIFSVGGMISSFLIGIISQWLGRKRAMLVNNVLAVLGGSLMGLANAAASYEMLILGRFLIGAYSGLTSGLVPMYVGEIAPTHLRGALGTLNQLAIVIGILIAQVLGLESLLGTASLWPLLLGLTVLPALLQLVLLPFCPESPRYLYIIQNLEGPARKSLKRLTGWADVSGVLAELKDEKRKLERERPLSLLQLLGSRTHRQPLIIAVVLQLSQQLSGINAVFYYSTSIFETAGVGQPAYATIGAGVVNTVFTLVSVLLVERAGRRTLHLLGLAGMCGCAILMTVALLLLERVPAMSYVSIVAIFGFVAFFEIGPGPIPWFIVAELFSQGPRPAAMAVAGFSNWTSNFIIGMGFQYVAEAMGPYVFLLFAVLLLGFFIFTFLRVPETRGRTFDQISAAFHRTPSLLEQEVKPSTELEYLGPDEND
chain 2: MTTEQRRSLQAFQDYIRKTLDPTYILSYMAPWFREEEVQYIQAEKNNKGPMEAATLFLKFLLELQEEGWFRGFLDALDHAGYSGLYEAIESWDFKKIEKLEEYRLLLKRLQPEFKTRIIPTDIISDLSECLINQECEEILQICSTKGMMAGAEKLVECLLRSDKENWPKTLKLALEKERNKFSELWIVEKGIKDVETEDLEDKMETSDIQIFYQEDPECQNLSENSCPPSEVSDTNLYSPFKPRNYQLELALPAMKGKNTIICAPTGCGKTFVSLLICEHHLKKFPQGQKGKVVFFANQIPVYEQQKSVFSKYFERHGYRVTGISGATAENVPVEQIVENNDIIILTPQILVNNLKKGTIPSLSIFTLMIFDECHNTSKQHPYNMIMFNYLDQKLGGSSGPLPQVIGLTASVGVGDAKNTDEALDYICKLCASLDASVIATVKHNLEELEQVVYKPQKFFRKVESRISDKFKYIIAQLMRDTESLAKRICKDLENLSQIQNREFGTQKYEQWIVTVQKACMVFQMPDKDEESRICKALFLYTSHLRKYNDALIISEHARMKDALDYLKDFFSNVRAAGFDEIEQDLTQRFEEKLQELESVSRDPSNENPKLEDLCFILQEEYHLNPETITILFVKTRALVDALKNWIEGNPKLSFLKPGILTGRGKTNQNTGMTLPAQKCILDAFKASGDHNILIATSVADEGIDIAQCNLVILYEYVGNVIKMIQTRGRGRARGSKCFLLTSNAGVIEKEQINMYKEKMMNDSILRLQTWDEAVFREKILHIQTHEKFIRDSQEKPKPVPDKENKKLLCRKCKALACYTADVRVIEECHYTVLGDAFKECFVSRPHPKPKQFSSFEKRAKIFCARQNCSHDWGIHVKYKTFEIPVIKIESFVVEDIATGVQTLYSKWKDFHFEKIPFDPAEMSK

Variants of: B1
Assay: co-IP (IP: FLAG) with immunoblot band densitometry; HEK293T cells; FLAG-GLUT4 plasmids, endogenous RIG-I; Vector, pcDNA3.1-FLAG; read off a plot

Row | response | Variant
1 | ~1.1 band density ratio (RIG-I/GLUT4) | chain 1 MPSGFQQIGSEDGEPPQQRVTGTLVLAVFSAVLGSLQFGYNIGVINAPQKVIEQSYNETWLGRQGPEGPSSIPPGTLTTLWALSVAIFSVGGMISSFLIGIISQWLGRKRAMLVNNVLAVLGGSLMGLANAAASYEMLILGRFLIGAYSGLTSGLVPMYVGEIAPTHLAGALGTLNQLAIVIGILIAQVLGLESLLGTASLWPLLLGLTVLPALLQLVLLPFCPESPRYLYIIQNLEGPARKSLKRLTGWADVSGVLAELKDEKRKLERERPLSLLQLLGSRTHRQPLIIAVVLQLSQQLSGINAVFYYSTSIFETAGVGQPAYATIGAGVVNTVFTLVSVLLVERAGRRTLHLLGLAGMCGCAILMTVALLLLERVPAMSYVSIVAIFGFVAFFEIGPGPIPWFIVAELFSQGPRPAAMAVAGFSNWTSNFIIGMGFQYVAEAMGPYVFLLFAVLLLGFFIFTFLRVPETRGRTFDQISAAFHRTPSLLEQEVKPSTELEYLGPDEND [chain 1 R169A]

Reference: article PMC11177981 (2024)
